Results: article PMC11558545, “Mechanistic Insights into the Function of 14-3-3 Proteins as Negative Regulators of Brassinosteroid Signaling in Arabidopsis” (Plant and Cell Physiology, 2024)

target: T1, Arabidopsis 14-3-3 isoform kappa (14-3-3κ) (Arabidopsis thaliana, UniProt P48348); experiment: biochemical; assay type: binding; details: ITC; proteins auto-/transphosphorylated or expressed in E. coli or insect cells as described
T1 construct: Full-length At14-3-3-κ^1−248 (Uniprot-ID P48348, http://uniprot.org); thioredoxin A (trxA) fusion (N, cleaved yes); 8xHis (N, cleaved yes); StrepII (N, cleaved yes); made in house; host or cells: E. coli BL21 (DE3) RIL
T1 sequence (P48348 whole entry, the tested form may be a part, canonical isoform): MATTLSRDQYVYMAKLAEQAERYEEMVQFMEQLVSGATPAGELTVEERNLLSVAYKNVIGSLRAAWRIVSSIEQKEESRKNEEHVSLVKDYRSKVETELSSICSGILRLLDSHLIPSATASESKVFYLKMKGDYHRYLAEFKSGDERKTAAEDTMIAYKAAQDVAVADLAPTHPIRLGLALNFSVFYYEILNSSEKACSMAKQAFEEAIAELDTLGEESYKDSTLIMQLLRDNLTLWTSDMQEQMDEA
Source text: Full-length At14-3-3-κ^1−248 (Uniprot-ID P48348, http://uniprot.org), At14-3-3-λ^1−248 (P48349), At14-3-3-ω^1−259 (Q01525) or C-terminal truncated At14-3-3-κ^1−240, At14-3-3-λ^1−240 or At14-3-3-ω^1−237 isoforms and BIN2^7−380 from Arabidopsis were cloned from synthetic genes codon-optimized for expression in E. coli (Geneart, Thermofisher, Tauberbischofsheim, Germany) into vector pMH-HStrxT providing an N-terminal thioredoxin A (trxA) fusion protein containing 8xHis and StrepII affinity tags, and a tobacco etch virus protease (TEV) recognition site. Protein expression in E. coli BL21 (DE3) RIL grown to OD600nm= 0.6 was induced with 0.2 mM ispropyl β-D-galactoside in terrific broth at 16°C for 16 h. Cells were collected by centrifugation at 4500 × g for 30 min, washed in PBS buffer, centrifuged again at 4500 × g for 15 min and snap-frozen in liquid N2. For protein purification cells were resuspended in buffer A (20 mM Tris–HCl pH 8.0, 500 mM NaCl), and lysed by sonication (Branson DS450). The lysate was cleared by centrifugation at 7000 × g for 60 min and filtrated using a 0.45 µm molecular weight cutoff filter (Pall Corporation, Port Washington, NY, USA). The supernatant was loaded onto a Ni^2+ affinity column (HisTrap HP 5 mL, Cytiva Life Sciences, Freiburg im Breisgau, Germany), washed with buffer A and eluted in buffer A supplemented with 250 mM imidazole pH 8.0. The elution fractions containing the trxA-14-3-3 or trxA-BIN2 fusion proteins were loaded onto a 5 mL Strep-Tactin Superflow High Capacity column (IBA Lifesciences, Goettingen, Germany), washed with buffer A and eluted in buffer A supplemented with 2.5 mM desthiobiotin. […] Dimeric (14-3-3s) or monomeric (BIN2) peak fractions were concentrated to 10–40 mg/ml and used directly for biochemistry and crystallization experiments. Point mutations were introduced by site-directed mutagenesis and variants At14-3-3 λ^N233A and 14-3-3 λ^R136L/Y137F were purified using the same protocol as described for the wild type.
The BRI1^814−1196 and BAK1^250−615/SERK3 cytoplasmic domains were purified as previously described ([Bojar et al. 2014]). BSK1 (residues 55–512), BSU1 (residues 1–793) and BIN2 (residues 7–380) were cloned into a modified pACEBac1 plasmid ([Bieniossek et al. 2012]) providing TEV-cleavable N-terminal 8xHis and tandem StrepII affinity tags, and expressed in baculovirus-infected Trichoplusia ni Tnao cells ([Hashimoto et al. 2010]). Cells grown to a density of 1.5 × 10^6 cells ml^−1 were infected with 10 ml of virus subjected to two rounds of viral amplification per 250 ml of cells and incubated for 48 h at 28°C. […]

Molecule	binding to 14-3-3κ, in words
BRI1^814-1196: isolated BRI1 cytoplasmic domain (residues 814–1196) after incubation with the BAK1 cytoplasmic domain (protein, auto- and transphosphorylated by incubation with BAK1^250−615; sites not given, isolated BRI1 cytoplasmic domain (residues 814–1196) after incubation with the BAK1 cytoplasmic domain) GREMRKRRRKKEAELEMYAEGHGNSGDRTANNTNWKLTGVKEALSINLAAFEKPLRKLTFADLLQATNGFHNDSLIGSGGFGDVYKAILKDGSAVAIKKLIHVSGQGDREFMAEMETIGKIKHRNLVPLLGYCKVGDERLLVYEFMKYGSLEDVLHDPKKAGVKLNWSTRRKIAIGSARGLAFLHHNCSPHIIHRDMKSSNVLLDENLEARVSDFGMARLMSAMDTHLSVSTLAGTPGYVPPEYYQSFRCSTKGDVYSYGVVLLELLTGKRPTDSPDFGDNNLVGWVKQHAKLRISDVFDPELMKEDPALEIELLQHLKVAVACLDDRAWRRPTMVQVMAMFKEIQAGSGIDSQSTIRSIEDGGFSTIEMVDMSIKEVPEGKL	No specific binding was detected
BAK1^250-615: BAK1/SERK3 cytoplasmic domain (residues 250–615) after incubation with BRI1^814−1196 (protein, auto- and transphosphorylated by incubation with BRI1^814−1196; sites not given) RRKKPQDHFFDVPAEEDPEVHLGQLKRFSLRELQVASDNFSNKNILGRGGFGKVYKGRLADGTLVAVKRLKEERTQGGELQFQTEVEMISMAVHRNLLRLRGFCMTPTERLLVYPYMANGSVASCLRERPESQPPLDWPKRQRIALGSARGLAYLHDHCDPKIIHRDVKAANILLDEEFEAVVGDFGLAKLMDYKDTHVTTAVRGTIGHIAPEYLSTGKSSEKTDVFGYGVMLLELITGQRAFDLARLANDDDVMLLDWVKGLLKEKKLEALVDVDLQGNYKDEEVEQLIQVALLCTQSSPMERPKMSEVVRMLEGDGLAERWEEWQKEEMFRQDFNYPTHHPAVSGWIIGDSTSQIENEYPSGPR	No specific binding was detected
BSK1^55-512: BSK1 (residues 55–512) after incubation with BRI1^814−1196 (protein, phosphorylated by incubation with BRI1^814−1196 (mainly Ser230); left off: 8xHis, N-terminal, cleaved | tandem StrepII, N-terminal, cleaved) IPSFSEFSFADLKAATNNFSSDNIVSESGEKAPNLVYKGRLQNRRWIAVKKFTKMAWPEPKQFAEEAWGVGKLRHNRLANLIGYCCDGDERLLVAEFMPNDTLAKHLFHWENQTIEWAMRLRVGYYIAEALDYCSTEGRPLYHDLNAYRVLFDEDGDPRLSCFGLMKNSRDGKSYSTNLAYTPPEYLRNGRVTPESVTYSFGTVLLDLLSGKHIPPSHALDMIRGKNIILLMDSHLEGKFSTEEATVVVELASQCLQYEPRERPNTKDLVATLAPLQTKSDVPSYVMLGIKKQEEAPSTPQRPLSPLGEACSRMDLTAIHQILVMTHYRDDEGTNELSFQEWTQQMKDMLDARKRGDQSFREKDFKTAIDCYSQFIDVGTMVSPTVFGRRSLCYLLCDQPDAALRDAMQAQCVYPDWPTAFYMQSVALAKLNMNTDAADMLNEAAQLEEKRQRGGRGS	No specific binding was detected
BIN2^7-380: BIN2 (residues 7–380) expressed either in Escherichia coli or in insect cells (protein, left off: thioredoxin A, N-terminal, cleaved | 8xHis, N-terminal, cleaved | StrepII, N-terminal, cleaved, BIN2 (residues 7–380) expressed either in Escherichia coli or in insect cells) MPAAVVDGHDQVTGHIISTTIGGKNGEPKQTISYMAERVVGTGSFGIVFQAKCLETGETVAIKKVLQDRRYKNRELQLMRVMDHPNVVCLKHCFFSTTSKDELFLNLVMEYVPESLYRVLKHYSSANQRMPLVYVKLYMYQIFRGLAYIHNVAGVCHRDLKPQNLLVDPLTHQVKICDFGSAKQLVKGEANISYICSRFYRAPELIFGATEYTTSIDIWSAGCVLAELLLGQPLFPGENAVDQLVEIIKVLGTPTREEIRCMNPHYTDFRFPQIKAHPWHKIFHKRMPPEAIDFASRLLQYSPSLRCTALEACAHPFFDELREPNARLPNGRPFPPLFNFKQEVAGSSPELVNKLIPDHIKRQLGLSFLNQSGT	No specific binding was detected
